# Results: US20230212549A1 (3B PHARMACEUTICALS, published 2023)
# “And” between values parts separate entries of the source, which are not always exact repeats. Equal values may be shown once. Numbered stars: 1 amine (or outer) side, 2 acyl side, 3 side chain; on linkers, the order of the positions; unused ones are H or OH. Bridge positions count the residues as written; N and C are the ends. Square brackets hold non-standard residues; d marks the D form. Primed or numbered codes have the meaning given here. * marks the point of attachment. Ttds″ = 1,13-diamino-4,7,10-trioxatridecan-succinamic acid spacer, O=C(CCC(=O)[*:2])NCCCOCCOCCOCCCN[*:1]; Ttds = 1,13-diamino-4,7,10-trioxatridecan-succinamic acid, O=C(CCC(=O)[*:2])NCCCOCCOCCOCCCN[*:1]; DOTA = O=C(O)CN1CCN(CC(=O)O)CCN(CC(=O)*)CCN(CC(=O)O)CC1; mXylylene = c1cc(C[*:1])cc(C[*:2])c1; PentylNH‑urea = CCCCCNC(=O)*; Octanoyl = CCCCCCCC(=O)*; Hexanoyl = CCCCCC(=O)*
# How the values were obtained:
# [1] = target: T1, fibroblast activation protein (FAP) on FAP-expressing human WI-38 fibroblasts (human, UniProt Q12884 1-760); experiment: competitive FACS, WI-38 cells, vs Cy5 tracer m3; B = pIC50 7.1-8.0
# T1 construct: also called human FAP
# [2] = target: Recombinant human FAP (R&D systems, #3715-SE) (human, UniProt Q12884 26-760); experiment: cell-based or functional assay
Binder,pIC50 Category (FACS) [1],pIC50 Category (Activity) [2]
"{PentylNH‑urea}-CPPTQFCD-NH2 (linker 1-7 via mXylylene; SMILES CCCCCNC(=O)N[C@H]1CSCc2cccc(c2)CSC[C@@H](C(=O)N[C@@H](CC(=O)O)C(N)=O)NC(=O)[C@H](Cc2ccccc2)NC(=O)[C@H](CCC(N)=O)NC(=O)[C@H]([C@@H](C)O)NC(=O)[C@@H]2CCCN2C(=O)[C@@H]2CCCN2C1=O, also called 3BP-3425) [PentylNH-urea-[Cys(3MeBn)-Pro-Pro-Thr-Gln-Phe-Cys]-Asp-NH2]",7.1 pIC50 and 8 pIC50,> 8 pIC50
"Ac-MCPPTEF[dC]DHFRD-NH2 (linker 2-8 via mXylylene; SMILES CSCC[C@H](NC(C)=O)C(=O)N[C@H]1CSCc2cccc(c2)CSC[C@H](C(=O)N[C@@H](CC(=O)O)C(=O)N[C@@H](Cc2c[nH]cn2)C(=O)N[C@@H](Cc2ccccc2)C(=O)N[C@@H](CCCNC(=N)N)C(=O)N[C@@H](CC(=O)O)C(N)=O)NC(=O)[C@H](Cc2ccccc2)NC(=O)[C@H](CCC(=O)O)NC(=O)[C@H]([C@@H](C)O)NC(=O)[C@@H]2CCCN2C(=O)[C@@H]2CCCN2C1=O, also called 3BP-3182) [Ac-Met-[Cys(3MeBn)-Pro-Pro-Thr-Glu-Phe-cys]-Asp-His-Phe-Arg-Asp-NH2]",7.1 pIC50 and 8 pIC50,7.1 pIC50 and 8 pIC50
"Hexanoyl-CPPTQFCD-NH2 (linker 1-7 via tMeBn(DOTA-NH), also called 3BP-3556) [Hex-[Cys(tMeBn(DOTA-NH))-Pro-Pro-Thr-Gln-Phe-Cys]-Asp-NH2]",7.1 pIC50 and 8 pIC50,7.1 pIC50 and 8 pIC50
"Ac-M[dC]PPTEF[dC]DHFRD-NH2 (linker 2-8 via mXylylene; SMILES CSCC[C@H](NC(C)=O)C(=O)N[C@@H]1CSCc2cccc(c2)CSC[C@H](C(=O)N[C@@H](CC(=O)O)C(=O)N[C@@H](Cc2c[nH]cn2)C(=O)N[C@@H](Cc2ccccc2)C(=O)N[C@@H](CCCNC(=N)N)C(=O)N[C@@H](CC(=O)O)C(N)=O)NC(=O)[C@H](Cc2ccccc2)NC(=O)[C@H](CCC(=O)O)NC(=O)[C@H]([C@@H](C)O)NC(=O)[C@@H]2CCCN2C(=O)[C@@H]2CCCN2C1=O, also called 3BP-3181) [Ac-Met-[cys(3MeBn)-Pro-Pro-Thr-Glu-Phe-cys]-Asp-His-Phe-Arg-Asp-NH2]",7.1 pIC50 and 8 pIC50,7.1 pIC50 and 8 pIC50
"Octanoyl-CPPTQFCD-NH2 (linker 1-7 via mXylylene; SMILES CCCCCCCC(=O)N[C@H]1CSCc2cccc(c2)CSC[C@@H](C(=O)N[C@@H](CC(=O)O)C(N)=O)NC(=O)[C@H](Cc2ccccc2)NC(=O)[C@H](CCC(N)=O)NC(=O)[C@H]([C@@H](C)O)NC(=O)[C@@H]2CCCN2C(=O)[C@@H]2CCCN2C1=O, also called 3BP-3417) [Oct-[Cys(3MeBn)-Pro-Pro-Thr-Gln-Phe-Cys]-Asp-NH2]",7.1 pIC50 and 8 pIC50,7.1 pIC50 and 8 pIC50
"Ac-MCPPTEFC[dD]HFRD-NH2 (linker 2-8 via mXylylene; SMILES CSCC[C@H](NC(C)=O)C(=O)N[C@H]1CSCc2cccc(c2)CSC[C@@H](C(=O)N[C@H](CC(=O)O)C(=O)N[C@@H](Cc2c[nH]cn2)C(=O)N[C@@H](Cc2ccccc2)C(=O)N[C@@H](CCCNC(=N)N)C(=O)N[C@@H](CC(=O)O)C(N)=O)NC(=O)[C@H](Cc2ccccc2)NC(=O)[C@H](CCC(=O)O)NC(=O)[C@H]([C@@H](C)O)NC(=O)[C@@H]2CCCN2C(=O)[C@@H]2CCCN2C1=O, also called 3BP-3183) [Ac-Met-[Cys(3MeBn)-Pro-Pro-Thr-Glu-Phe-Cys]-asp-His-Phe-Arg-Asp-NH2]",7.1 pIC50 and 8 pIC50,7.1 pIC50 and 8 pIC50
"Ac-MCPPT[dE]FCDHFRD-NH2 (linker 2-8 via mXylylene; SMILES CSCC[C@H](NC(C)=O)C(=O)N[C@H]1CSCc2cccc(c2)CSC[C@@H](C(=O)N[C@@H](CC(=O)O)C(=O)N[C@@H](Cc2c[nH]cn2)C(=O)N[C@@H](Cc2ccccc2)C(=O)N[C@@H](CCCNC(=N)N)C(=O)N[C@@H](CC(=O)O)C(N)=O)NC(=O)[C@H](Cc2ccccc2)NC(=O)[C@@H](CCC(=O)O)NC(=O)[C@H]([C@@H](C)O)NC(=O)[C@@H]2CCCN2C(=O)[C@@H]2CCCN2C1=O, also called 3BP-3179) [Ac-Met-[Cys(3MeBn)-Pro-Pro-Thr-glu-Phe-Cys]-Asp-His-Phe-Arg-Asp-NH2]",7.1 pIC50 and 8 pIC50,6.1 pIC50 and 7 pIC50
"MCPPTQFC (N-term acetyl; D-Met1; Cys2/Cys8 thioether-bridged by tMeBn carrying DOTA-AET; C-term free acid, also called 3BP-3682) [Ac-met-[Cys(tMeBn(DOTA-AET))-Pro-Pro-Thr-Gln-Phe-Cys]-OH]",7.1 pIC50 and 8 pIC50,7.1 pIC50 and 8 pIC50
"{DOTA}-[Ttds″]ECPPTEFCDHFRD-NH2 (linker 3-9 via mXylylene; SMILES C[C@@H](O)[C@@H]1NC(=O)[C@@H]2CCCN2C(=O)[C@@H]2CCCN2C(=O)[C@@H](NC(=O)[C@H](CCC(=O)O)NC(=O)CCC(=O)NCCCOCCOCCOCCCNC(=O)CN2CCN(CC(=O)O)CCN(CC(=O)O)CCN(CC(=O)O)CC2)CSCc2cccc(c2)CSC[C@@H](C(=O)N[C@@H](CC(=O)O)C(=O)N[C@@H](Cc2c[nH]cn2)C(=O)N[C@@H](Cc2ccccc2)C(=O)N[C@@H](CCCNC(=N)N)C(=O)N[C@@H](CC(=O)O)C(N)=O)NC(=O)[C@H](Cc2ccccc2)NC(=O)[C@H](CCC(=O)O)NC1=O, also called 3BP-3173) [DOTA-Ttds-Glu-[Cys(3MeBn)-Pro-Pro-Thr-Glu-Phe-Cys]-Asp-His-Phe-Arg-Asp-NH2]",7.1 pIC50 and 8 pIC50,7.1 pIC50 and 8 pIC50
"{DOTA}-[Ttds]FCPPTEFCDHFRD-NH2 (linker 3-9 via mXylylene; SMILES C[C@@H](O)[C@@H]1NC(=O)[C@@H]2CCCN2C(=O)[C@@H]2CCCN2C(=O)[C@@H](NC(=O)[C@H](Cc2ccccc2)NC(=O)CCC(=O)NCCCOCCOCCOCCCNC(=O)CN2CCN(CC(=O)O)CCN(CC(=O)O)CCN(CC(=O)O)CC2)CSCc2cccc(c2)CSC[C@@H](C(=O)N[C@@H](CC(=O)O)C(=O)N[C@@H](Cc2c[nH]cn2)C(=O)N[C@@H](Cc2ccccc2)C(=O)N[C@@H](CCCNC(=N)N)C(=O)N[C@@H](CC(=O)O)C(N)=O)NC(=O)[C@H](Cc2ccccc2)NC(=O)[C@H](CCC(=O)O)NC1=O, also called 3BP-3171) [DOTA-Ttds-Phe-[Cys(3MeBn)-Pro-Pro-Thr-Glu-Phe-Cys]-Asp-His-Phe-Arg-Asp-NH2]",7.1 pIC50 and 8 pIC50,7.1 pIC50 and 8 pIC50
"Ac-MCPP[dT]EFCDHFRD-NH2 (linker 2-8 via mXylylene; SMILES CSCC[C@H](NC(C)=O)C(=O)N[C@H]1CSCc2cccc(c2)CSC[C@@H](C(=O)N[C@@H](CC(=O)O)C(=O)N[C@@H](Cc2c[nH]cn2)C(=O)N[C@@H](Cc2ccccc2)C(=O)N[C@@H](CCCNC(=N)N)C(=O)N[C@@H](CC(=O)O)C(N)=O)NC(=O)[C@H](Cc2ccccc2)NC(=O)[C@H](CCC(=O)O)NC(=O)[C@@H]([C@H](C)O)NC(=O)[C@@H]2CCCN2C(=O)[C@@H]2CCCN2C1=O, also called 3BP-3178) [Ac-Met-[Cys(3MeBn)-Pro-Pro-thr-Glu-Phe-Cys]-Asp-His-Phe-Arg-Asp-NH2]",7.1 pIC50 and 8 pIC50,7.1 pIC50 and 8 pIC50
"Ac-MCP[dP]TEFCDHFRD-NH2 (linker 2-8 via mXylylene; SMILES CSCC[C@H](NC(C)=O)C(=O)N[C@H]1CSCc2cccc(c2)CSC[C@@H](C(=O)N[C@@H](CC(=O)O)C(=O)N[C@@H](Cc2c[nH]cn2)C(=O)N[C@@H](Cc2ccccc2)C(=O)N[C@@H](CCCNC(=N)N)C(=O)N[C@@H](CC(=O)O)C(N)=O)NC(=O)[C@H](Cc2ccccc2)NC(=O)[C@H](CCC(=O)O)NC(=O)[C@H]([C@@H](C)O)NC(=O)[C@H]2CCCN2C(=O)[C@@H]2CCCN2C1=O, also called 3BP-3177) [Ac-Met-[Cys(3MeBn)-Pro-pro-Thr-Glu-Phe-Cys]-Asp-His-Phe-Arg-Asp-NH2]",7.1 pIC50 and 8 pIC50,7.1 pIC50 and 8 pIC50
